# Experimental data: the nanobody polyreactivity screen of Harvey et al. (2022)
# Experiment: yeast display, Sf9 membrane polyspecificity reagent, FACS + sequencing; frameworks hold sequencing errors
# How it was run: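 Using colony PCR, genes from sorted yeast display clones were amplified, then sequenced on MiSeq at 2 × 250 and filtered by CDR length. The clones had been stained with 10% biotinylated, detergent-solubilized Sf9 membrane reagent for 1 hour at 4 °C and sorted by FACS into low and high (top ~1%) gates on anti-HA and streptavidin fluorescence. Polyreactivity labels come from the gate of origin.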
row,Sequence,polyreactivity (PSR sort gate)
1,QVQLVESGGGLVQAGGSLRLSCDASGLTFTRNAMGWYRPAPGKERELVAAITSTGSTNYADSVKGRFTISRDNAKNTVYLQMNSLKPEDTAVYYCNARNAYYDDNYWGQGTQVTVSS,low polyreactivity
2,QVQLVESGGGLVQAGGSLRLSCDASGNTFLWYAMGWYRQAPGKERELVAAITYSGGSTYYADSVKGRFTISRDNAKITVYLQMNSLKPEDTARYYCNADYFGYDYVEYGYWGQGTQVTVSS,low polyreactivity
3,QVQLVESGGGLVQAGGSLRLSCDASGPIFAWNGMGWYRPAPGKERELVAVITSGGNTNYADSVKGRFTFSLDNAKNTVFIQMNSLKPEDTAVYDCATKGYAKRTRFWSHYDYWGQGTQVNVSS,high polyreactivity
4,QVQLVESGGGLVQAGGSLRLSCDASGRICGTNAMGWYRQAPGKERELVADITSGGSTNYADSVKGRFTISRDYAKNTVYVQMNSLKPEDTAVYYCAADVIGDLRWYRDEYWGQGTQVTVSS,low polyreactivity
5,QVQLVESGGGLVQAGGSLRLSCDASGRIFDANVMGWYRQAPGKERELVAAISSGGRTKYADSVKGRFTISRDNAKNTVYLQMNSLKPEDTAVYYCNADYRNDWGTPLWYAYNYWGQGTQVTVSS,low polyreactivity
6,QVQLVESGGGLVQAGGSLRLSCDASGRIFDYYAMGWYRQAPGKEMELVAAISTSGGSTYYADSVKGRFTISRDNAKNTVYLQMTRLKPEDTAVYYWAKDITDTYPGLDYDYWGQGTQVTVSS,low polyreactivity
7,QVQLVESGGGLVQAGGSLRLSCDASGRIFFWYAMGWYRQAPGKERELVAGITSAGSTNYADSVKGRFTISRDNAKNTVYLQMNSLKPEDTSVYFCNTVDSIPIGSGLYYYWGQGTQVTVSS,low polyreactivity
8,QVQLVESGGGLVQAGGSLRLSCDASGRIFRVYAMGWYRQAHGKERQLVAAIRWTGGSTYYADSVKGRFKISRDNAKNTVYLQMNSLKPEDTAVYYCAAGRYYSDGSRTIYDYWGQGTQVTVSS,low polyreactivity
9,QVQLVESGGGLVQAGGSLRLSCDASGRIFVRYTMGWYRQATGKERELVAAITRSGGTYYADSVKGRFTISRDNATNTVYLQMNSLKPEDTAVYYCAADSWLSLWYEYWGQGTQVTVSS,low polyreactivity
10,QVQLVESGGGLVQAGGSLRLSCDASGRIFYINALGWYRQAPGKERELVASITGSGDSTYYADSVKGRFTISRDNAKNTVYLQMNILKPEDTAVYYCAARTYYYYGPRYYYWGQGTQVTVSS,low polyreactivity
11,QVQLVESGGGLVQAGGSLRLSCDASGRTFAGYAMGWYRQAPGKERELVAAITTSGGRTYYADSVKGRFTISRDNAKNTVYLQMNSLKPEDTAVYDCNVASKGRYARYAAEYGSWGQGTQVTVSS,high polyreactivity
12,QVQLVESGGGLVQAGGSLRLSCDASGRTFGLNAMGWYRQAPGKERDLVAAISSSGGSTYYADSVKWRFTISRDNAKNTVYLQMNRLKPEDNAVYYCAKVLYRYGNDYYYWGQGTQVTVSS,high polyreactivity
13,QVQLVESGGGLVQAGGSLRLSCDASGRTFGNNAMGWYRQAPGKERELVASISSSGGTNYADSVKGRFTISRDNAKNTVYVQLNSLKPEDTAVYYCAKRKFTARQRYNYWGQGTQVTVSS,high polyreactivity
14,QVQLVESGGGLVQAGGSLRLSCDASGRTFIGYAMGWYRQAPGKERELVAAINWSGARTYYADSVKGRFTISRDNAKNTVYLQMNSLKPEDTAVYYCAAVPVTSQTKYGYWGQGTQVTVSS,high polyreactivity
15,QVQLVESGGGLVQAGGSLRLSCDASGRTFLRNTMGWYRQAPGKERELVAAISRSGATTYYADSVKGRFTISRDNAKNTVYLQMNTLKPEDTADYYCAAAYRGREVEYNSWGQGTQVTVSS,high polyreactivity
16,QVQLVESGGGLVQAGGSLRLSCDASGSIFDLNAMGWYRQAPGKERELVAAISSGGGTNYADSVKGRFTISRDNAKNTVYLQMYSLKPEDTAVYYCAVGSTRDGVYLGQGTQVTVSS,high polyreactivity
17,QVQLVESGGGLVQAGGSLRLSCDASGSIFVKNAMGWYRQAPGKERELVAVITIRTATTYYADSVKGRFTISRDNAKNTVYLQMNSLKPEDTAVYYCASAKRQRGYLQREGNYWGQGTQVTVSS,low polyreactivity
18,QVQLVESGGGLVQAGGSLRLSCDASGSIFYPYAMGWYRQAPGKERELVASISWSGGSTRYADSVKGRFTISRDHAKNTVYLQMNSLKPEDTAVYYCAARYILSKYGSGVRYYYWGQGTQVTVSS,high polyreactivity
19,QVQLVESGGGLVQAGGSLRLSCDASGSIFYYNAMGWYRQAPGKERELVAAISVSGGSTYYADSVKGRFTISRDNAKNTVYLQMNSLKPEDTAVYYCAAEWLYYYWLPGRADYLEYDYWGQGTQVTVSS,low polyreactivity
20,QVQLVESGGGLVQAGGSLRLSCDASGSISIGYTMGWYRQAPGKERELVATISWSGGNTYYADSVKGRFTISRDNAKNTVYLQMNSLKPEDTAVYYCAARWYYYPLLYDYWGQGTQVTVSS,low polyreactivity
21,QVQLVESGGGLVQAGGSLRLSCDASGSTFASYAMGWYRQAPGKERELVAAIRWSGGTTYYADSVKGRFTISRDNAKNTVYLLMNSLKTEDTAVYYCNADRYYLYYYWGQGTQVTVSS,low polyreactivity
22,QVQLVESGGGLVQAGGSLRLSCDASGSTFPKYAMGWYRQAHGKERELVAAITSSGGRTFYADSVKGRFTISRDNAKNTVYLQMNSLKPEDTAVYYCAAYYYSWSGAFIYDYWGQGTQVTVSS,high polyreactivity
